# Measurements as given in patent publication US20240034774A1 (Gilead, published 2024).
# Residue numbers refer to the chain shown, from its start.
# B1: 1.31.33-1 (antibody, human IgG1, kappa)
# heavy: QVQLVQSGAEVTKPGASVRVSCEASGYNIRDYFIHWWRQAPGQGLQWVGWINPKTGQPNNPRQFQGRVSLTRHASWDFDTFSFYMDLKALRSDDTATYFCARQRSDYWDFDVWGSGTQVTVSSASTKGPSVFPLAPSSKSTSGGTAALGCLVKDYFPEPVTVSWNSGALTSGVHTFPAVLQSSGLYSLSSVVTVPSSSLGTQTYICNVNHKPSNTKVDKKVEPKSCDKTHTCPPCPAPELLAGPDVFLFPPKPKDTLMISRTPEVTCVVVDVSHEDPEVKFNWYVDGVEVHNAKTKPREEQYNSTYRVVSVLTVLHQDWLNGKEYKCKVSNKALPLPEEKTISKAKGQPREPQVYTLPPSREEMTKNQVSLTCLVKGFYPSDIAVEWESNGQPENNYKTTPPVLDSDGSFFLYSKLTVDKSRWQQGNVFSCSVLHEALHSHYTQKSLSLSPGK
# light: DIQMTQSPSSLSASVGDTVTITCQANGYLNWYQQRRGKAPKLLIYDGSNLERGVPSRFSGRRWGQEYTLTISSLQPEDIATYFCQVYEFVVPGTNLDIKRTVAAPSVFIFPPSDEQLKSGTASVVCLLNNFYPREAKVQWKVDNALQSGNSQESVTEQDSKDSTYSLSSTLTLSKADYEKHKVYACEVTHQGLSSPVTKSFNRGEC
# B2: 1.2.2-1 (antibody, human IgG1)
# heavy: B1 heavy with V5L, T12K, T97V, Q118M
# VL: DIQMTQSPSSLSASVGDTVTITCQANGYLNWYQQKPGKAPKLLIYDGSKLERGVPSRFSGRRWGQEYNLTINNLQPEDIATYFCQVYEFVVPGTKVDIK
# B3: 1.22.1-1 (antibody, human IgG1, kappa)
# heavy: QVQLLQSGAAVTKPGASVRVSCEASGYNIRDYFIHWWRQAPGQGLQWVGWINPKTGQPNNPRQFQGRVSLTRHASTFSFYMDLKALRSDDTAVYFCARQRSDYWDFDVWGSGTQVTVSSASTKGPSVFPLAPSSKSTSGGTAALGCLVKDYFPEPVTVSWNSGALTSGVHTFPAVLQSSGLYSLSSVVTVPSSSLGTQTYICNVNHKPSNTKVDKKVEPKSCDKTHTCPPCPAPELLAGPDVFLFPPKPKDTLMISRTPEVTCVVVDVSHEDPEVKFNWYVDGVEVHNAKTKPREEQYNSTYRVVSVLTVLHQDWLNGKEYKCKVSNKALPLPEEKTISKAKGQPREPQVYTLPPSREEMTKNQVSLTCLVKGFYPSDIAVEWESNGQPENNYKTTPPVLDSDGSFFLYSKLTVDKSRWQQGNVFSCSVLHEALHSHYTQKSLSLSPGK
# light: B1 light with N49K, T68N, S72N, S73N, N95R, I98L
# B4: 1.35.1-1 (antibody, human IgG1, kappa)
# heavy: B1 heavy with T12K, E23K, I34M, S69T, L70M, K88S, A89R, S105T, S115Q, Q118M
# light: B1 light with N49K, T68N, S72N, S73N, N95R, I98L
# B5: 1.35.31-1 (antibody, human IgG1, kappa)
# heavy: B1 heavy with T12K, E23K, I34M, S69T, L70M, K88S, A89R, S105T, S115Q, Q118M
# light: B1 light with N49K, I98L
# B6: 1.33.33-1 (antibody, human IgG1, kappa)
# heavy: B1 heavy with T12K, E23K, S69T
# light: B1 light
# B7: 1.32.32-1 (antibody, human IgG1, kappa)
# heavy: B1 heavy with T97V, S105T
# light: B1 light with N49K, V91T, N95R, I98L
# B8: 1.1.2-1 (antibody, human IgG1)
# heavy: B1 heavy with V5L, E10A, T97V
# VL: B2 VL
# B9: 1.31.34-1 (antibody, human IgG1, kappa)
# heavy: B1 heavy
# light: B1 light with V91T, N95R
# B10: 1.32.31-1 (antibody, human IgG1, kappa)
# heavy: B1 heavy with T97V, S105T
# light: B1 light with N49K, I98L
# B11: 1.34.33-1 (antibody, human IgG1, kappa)
# heavy: B1 heavy with T12K, E23K, S69T, T97V, S105T
# light: B1 light
# B12: 1.34.32-1 (antibody, human IgG1, kappa)
# heavy: B1 heavy with T12K, E23K, S69T, T97V, S105T
# light: B1 light with N49K, V91T, N95R, I98L
# B13: 1.34.31-1 (antibody, human IgG1, kappa)
# heavy: B1 heavy with T12K, E23K, S69T, T97V, S105T
# light: B1 light with N49K, I98L
# B14: 1v2-1 (antibody, human IgG1, kappa)
# heavy: B1 heavy with V5L, E10A, F81Y, T97V
# light: B1 light with N49K, T68N, S72N, S73N, N95R, I98L
# B15: 1.32.1-1 (antibody, human IgG1, kappa)
# heavy: B1 heavy with T97V, S105T
# light: B1 light with N49K, T68N, S72N, S73N, N95R, I98L
# B16: 1.32.33-1 (antibody, human IgG1, kappa)
# heavy: B1 heavy with T97V, S105T
# light: B1 light
# B17: 1.32.34-1 (antibody, human IgG1, kappa)
# heavy: B1 heavy with T97V, S105T
# light: B1 light with V91T, N95R
# B18: 1.33.34-1 (antibody, human IgG1, kappa)
# heavy: B1 heavy with T12K, E23K, S69T
# light: B1 light with V91T, N95R
# B19: 1.33.1-1 (antibody, human IgG1, kappa)
# heavy: B1 heavy with T12K, E23K, S69T
# light: B1 light with N49K, T68N, S72N, S73N, N95R, I98L
# B20: 1.33.31-1 (antibody, human IgG1, kappa)
# heavy: B1 heavy with T12K, E23K, S69T
# light: B1 light with N49K, I98L
# B21: 1.33.32-1 (antibody, human IgG1, kappa)
# heavy: B1 heavy with T12K, E23K, S69T
# light: B1 light with N49K, V91T, N95R, I98L
# B22: 1.34.34-1 (antibody, human IgG1, kappa)
# heavy: B1 heavy with T12K, E23K, S69T, T97V, S105T
# light: B1 light with V91T, N95R
# B23: 1.34.1-1 (antibody, human IgG1, kappa)
# heavy: B1 heavy with T12K, E23K, S69T, T97V, S105T
# light: B1 light with N49K, T68N, S72N, S73N, N95R, I98L
# Legend:
# BSA = BSA (UniProt P02769 25-607); assay: single-point ELISA, BSA control
# gp120 Bal = gp120 Bal (HIV (Bal)); assay: single-point ELISA at EC50 conc. of A-1
# gp120 SHIV SF162 P3 = gp120 SHIV SF162 P3 (SHIV SF162 P3); assay: single-point ELISA at EC50 conc. of A-1
# gp120 CAAN = gp120 CAAN (HIV (CAAN)); assay: single-point ELISA at EC50 conc. of A-1
Binder,ELISA A450 (BSA),ELISA A450 (gp120 Bal),ELISA A450 (gp120 SHIV SF162 P3),ELISA A450 (gp120 CAAN)
B1,0.06 A450,0.89 A450,0.74 A450,0.86 A450
B2,0.06 A450,0.91 A450,0.97 A450,0.8 A450
B3,0.06 A450,1.03 A450,0.78 A450,0.87 A450
B4,0.07 A450,0.84 A450,0.8 A450,0.87 A450
B5,0.07 A450,1.05 A450,0.68 A450,0.99 A450
B6,0.07 A450,1.09 A450,0.97 A450,1.06 A450
B7,0.08 A450,0.89 A450,0.7 A450,0.9 A450
B8,0.06 A450,0.95 A450,1.01 A450,0.93 A450
B9,0.06 A450,0.76 A450,0.82 A450,0.86 A450
B10,0.07 A450,0.95 A450,0.66 A450,0.9 A450
B11,0.06 A450,1.1 A450,0.82 A450,1.04 A450
B12,0.06 A450,0.93 A450,0.69 A450,0.97 A450
B13,0.06 A450,0.91 A450,0.77 A450,0.92 A450
B14,0.08 A450,1.03 A450,1.29 A450,1 A450
B15,0.06 A450,0.93 A450,0.91 A450,0.83 A450
B16,0.06 A450,0.93 A450,0.71 A450,0.68 A450
B17,0.06 A450,0.81 A450,0.71 A450,0.86 A450
B18,0.06 A450,0.95 A450,0.82 A450,0.95 A450
B19,0.06 A450,0.88 A450,0.96 A450,0.98 A450
B20,0.07 A450,0.92 A450,0.89 A450,1.18 A450
B21,0.07 A450,0.98 A450,0.98 A450,1.13 A450
B22,0.06 A450,0.89 A450,0.7 A450,0.88 A450
B23,0.07 A450,0.83 A450,0.79 A450,0.9 A450
